Measurements published in the DeepSol protein solubility set.

assay: soluble on expression in E. coli; label from the status in PepcDB or PDB records

Row | Sequence | soluble on expression in E. coli
1 | VPFDPGKIERAIAAAGQATGEFDPQQAQALAERVVERLPERACLDIERVQDLVERVLMEAGHYPTARAYVVYRERHGRLRRERKTLVDVAASMNEYLSREDWRVRANANQGYSLGGLILNVSGKVTANYWLDEVYDADIAAAHRDADLHIHDLDMLAGYCAGWSLRTLLNEGLNGVPGRVEAGPPKHLGSALGQMVNFLGTLQNEWAGAQAFSSFDTYLAPYVRKDRLDYASVRQALQEFIYNLNVPSRWGTQTPFTNLTFDWVCPDDLRDQVPRIGGEEMPFAYGELQAEMDLINRAYIEVMQAGDAHGRVFTFPIPTYNITHDFPWDSDNATRLFEMTARYGLPYFQNFLNSDMQPNQVRSMCCRLQLDVRELLKRGNGLFGSAEQTGSLGVVTINCARLGYRHRGDAAGLYRQLDHLLELAFASLELKRKVIQQHMDAGLYPYTRRYLGTLRNHFSTIGVNGLHEMVRNFSDDREGLHSEAGREMALALLDHVRARLVGFQEDSGHLYNLEATPAEGTTYRFAREDRKRYPRILQAGTPEAPYYTNSSQLPVGFTDDPFEALELQDALQCKYTGGTVLHLYMAERISSAEACKTLVRTALGRFRLPYLTVTPTFSICPRHGYLAGEHEFCPKCDEELLQRSTPKSCCGGC | not soluble
2 | VRSYLLRIELADRPGSLGSLAVALGSVGADILSLDVVERGNGYAIDDLVVELPPGAMPDTLITAAEALNGVRVDSVRPHTGLLEAHRELELLDHVAAAEGATARLQVLVNEAPRVLRVSWCTVLRSSGGELHRLAGSPGAPETRANSAPWLPIERAAALDGGADWVPQAWRDMDTTMVAAPLGDTHTAVVLGRPGPEFRPSEVARLGYLAGIVATMLR | soluble
3 | VTQLPQPTWRWWQQRETEQVQSSHIDGEIVGALIPDLAVLHSEDASRAAVGREKHRCSLDPLGGGFRSRRASMPAGALLLSAVIAIQLDRMNARVFGDGWIGAQACMWVNKFHEESTVTALSPSSPIAQGSIARHPETMQSAYVRIAEGGSRDVAPAAQLQRRRP | not soluble
4 | VTSDPGTAAPVKRTAEQSRSLIVDAAGRAFATRPYREITLKDIAEDAGVSAPLIIKYFGSKEQLFDALVDFRAAAEIVFSGPLDGLGERMVSMFARPLEPYKPLSLNILFMSGPSEESSRKLRANYSAQMIDALAERLPGRDARLRAELVMSMLTGLAVMRRKMMQEHATGTPEEVVAHYAPLVQELLDG | soluble
5 | VTSSLPTVQRVIQNALEVSQLKYSQHPRPGGAPPALIVELPGERKLKINTILSVGEHSVRVEAFVCRKPDENREDVYRFLLRRNRRLYGVAYTLDNVGDIYLVGQMALSAVDADEVDRVLGQVLEVVDSDFNALLELGFRSSIQREWQWRLSRGESLQNLQAFAHLRPTTMQSAQRDEKELGG | soluble
6 | VVIPSPCCMFFVSKRIPENRVVSYQLSSRSTCLKAGVIFTTKKGQQSCGDPKQEWVQRYMKNLDAKQKKASPR | soluble
7 | VVKRSRATRLSPSIWSGWESPQCRSIRARLLLPRGRSRPPNADCCWNQLAVTPDTRMPASSAAGRDAAAYDAWYDSPTGRPILATEVAALRPLIEVFAQPRLEIGVGTGRFADLLGVRFGLDPSRDALMFARRRGVLVANAVGEAVPFVSRHFGAVLMAFTLCFVTDPAAIFRETRRLLADGGGLVIGFLPRGTPWADLYALRAARGQPGYRDARFYTAAELEQLLADSGFRVIARRCTLHQPPGLARYDIEAAHDGIQAGAGFVAISAVDQAHEPKDDHPLESE | not soluble
8 | WLDHVQNLVPGLDRQGLLEACEFARESEQRAIAAQNSWAEGTSSFQTGLEIAEILADLKLDQESLVAAVIYRGVREGKITLEAVNKHFGPVVAKLIEGVLRMAAISASLNPRHSMVLGTQAQVENLRKMLVAMVDDVRVALIKLAERTCAIRAVKNADEEKRHRVAREVFDIYAPLAHRLGIGHIKWELEDLSFRYLEPDQYKQIAKLLHERRLDREQYIANVMSQLKEALAATGVQADLSGRAKHIYSIWRKMQRKGLDFSQIYDVRAVRVLVPEMRDCYTALGIVHTLWRHIPKEFDDYIANPKENGYRSLHTAVIGPEGKVLEVQIRTHSMHEEAELGVCAHWRYKGTDVKASSNHYEEKISWLRQVLEWHEELGDIGGLAEQLRVDIEPDRVYVFTPDGHAIDLPKGATPLDFAYRVHTEVGHNCRGAKINGRIVPLNYSLQTGEQVEIITGKHSGPSRDWLNSNLGYVTTSRARAKIVHWFKLQARDQNVAAGKALIERELSRLALPPVDFDRLAEKANVRTAEDMFAALGAGDLRLAHLVNYAQQLVEPDRDSEQLELIPRKPSKIGHGKRGDVQIQGVGNLLTQMAGCCQPLPGDPIVGYITLGRGVTIHRQDCATALQLAGREPERMIQVSWGPEPVRTYPVDIAIRAYDRSGLLRDVSQVLLNERINVLAVNTRSNKEDNTATMQLTIEIPGLDALGRLLARVSQLPNIIEARRNR | not soluble
9 | WLSPEIEALSHGTRLNNIDMYPALQRLLPWPEATNFEEFAPSHLSVPSGNQHRLDYSSGRPVIRVKLQECFGLEESPQLCGIPVQFHLLSPAGRPLAVTDDLRSFWSGPYSQVRAEMRGRYPKHPWPEDPWTAPATARTKNRM | not soluble
10 | WVQPITAQKPSLTLWLDDKMFTGLINTGADVTIIKLEDWPPNWPITDTLTNLRGIGQSNNPKQSSKYLTWRDKENNSGLIKPFVIPNLPVNLWGRDLLSQMKIMMAS | soluble
11 | YCEFLNNELRAHASDLLPTAPVPTMMLDRAWDEATLHNITQLIYDVRKDDALFRREISKPGAFDLMRKNYWDRREYSAVTLVGNETCNLAPLAELGFQIEVSQ | not soluble
12 | YDKRIHRFRKGWNSLIPTHNKIQYAGNMGMFSFGTGWDYGKRDQWETDLFFGFIPKHDSHRAKMTMTLKQNYMPWSLELGKGFSTEPLACGIYFNTVFGHEFWVHEPSRYPEGYYGFSSKIRTHIFLGQRLTYDIDRERRFFAKSVTLFYELSTCDLLLISRVTNSYLRARDYLSLSFGLKFQWL | not soluble
13 | YDPSKDPSSSLARRNLIIGLMEKAGFITHAQAVRAKATPLVLHYTPVTQQGLAPYFTEYIRQTIKSSSMLEGVNVYRDGL | not soluble
14 | YFNLQFGANLDVYLTKKWSVGADLLLSFKTYQYKNTLLGYSELTMKENQLWLELPIVLKYTMGQKKLRYYLQAGGAVSMILSSNSNIVRKDAATQSNQAIGPDINTRDLRNMFNYSLVGGGGIRYKAGYGYLVLDVKYMYGLNNISDMDNKYSNDELIYKYGYIDNDFTLNSLMFSIGYYKSFYKPKKLPTYEK | not soluble
15 | YIDVKRMMYTLIVSFVFSRVVDSVLDGAYAAKGILIVSNHSEEIGQSLMASLERGVTYLNGEGAYSQVEKRVLYTVVSPREIMEVKRIANEIDEKAFVSIINVHEAIGEGFTYAKPSKQRRFKLKQ | not soluble
16 | YIKMISNAKRSILIQTPYFIPDASLLDALRIACLSGIDVNIMIPNKPDHAFVYWATLSYIGDLLKAGATVYIYDNGFIHAKTIVVDDEIASVGTANIDVRSFRLNFEVNAFIYDITIAKKLVSTFKEDLLVSRKFTYEEYLQRPLWIR | not soluble
17 | YIRKRVPLLCLGKRWFVFDKSLMKKTISYGSTSAMQQVCLQIGKTIIQAVVNTQGVSVMAAFTAVNRVDDFAYIPQQNIGHAMTTFIAQNKGAGKRERIRRGLQ | not soluble
18 | YNPLYSIENATSRRDTVLQNMVAAGKISQKQANEAKKVGMGNRISDTYVAKTDDYQYPSYFDAVISEASSVYGISEKDIVNNGY | not soluble
19 | YSSRRFEKKKIHFPSRRRRFVDYLINAQRSEKLELNSQQQLGNRHSGSSELVKSESRKKAKSSNQKEKVKPEKRGRATATTGAGPTIDQSLKGPTGTTMASERGMTMTQTIQKEKSIKKKKSEKDERKRAKEVGNEEAAADNQTVTQGNDTTTTQGPSSMFPADLSKKHRLGLQKVKERAVEVPEKKKTKNNE | not soluble
20 | YVSTDGDDIYVGKNNKQNDYLTNKKAKKTHTWLHTKDIPGSHVVIFNDAPSDTTIKEAAMLAGYFSKAGNSGQIPVDYTLIKNVHK | not soluble
21 | YVTNDLANSMKDRGTMLADSLRVDFAIINDPSKIPVSGTGPYTYTFYVKNIGKDSIAFSSNSIQVFIDGNIIPPANLTFTDVNGNSISSLDPGEVGAIQVTLGNALDPGYHRIQVVLENGKERVLIFKI | not soluble
22 | YVWDTKMNVGLRVGAAAEFMIGSRGFYLAPGLNYTMKGSKTEWDIPEMVPGTYITMVSTRLHYLQLPINAGMRFDLMNDMAVSIEAGPFLAYGIYGTYRQKLEGWKPNNYSTEFFGPTLGGPTNIRWDIGANIIAAFHYKRYYIQIGYEHGFVDIVSGGGSDIPRLNDNRQSSSTTALREKGNNEYAYNRDFFVGIGYRF | not soluble
